Data: PMC5531466, “Biochemical characterization of a new nicotinamidase from an unclassified bacterium thriving in a geothermal water stream microbial mat community” (PLoS ONE, 2017)

How the values were obtained:
[1] = target: T1, (UniProt H5SPS2); test: HPLC nicotinamidase assay, Morrison equation; also thermal shift (Tm […] °C); type: biochemical
T1 construct: full-length, N-terminal 6-histidine tag (pET28a)

[2] = test system: CCOC(=O)c1cccnc1; test: purified protein; details: Fe2+ active site; C155 thiolate attack at C7 of ethylnicotinate
[3] = test system: COC(=O)c1cccnc1; test: purified protein; details: Fe2+ active site
[4] = test system: Cc1cncc(C(N)=O)c1; test: purified protein; details: Fe2+ active site
[5] = test system: NC(=O)c1cnccn1; test: purified protein; details: Fe2+ active site

T1 sequence (H5SPS2 1-220): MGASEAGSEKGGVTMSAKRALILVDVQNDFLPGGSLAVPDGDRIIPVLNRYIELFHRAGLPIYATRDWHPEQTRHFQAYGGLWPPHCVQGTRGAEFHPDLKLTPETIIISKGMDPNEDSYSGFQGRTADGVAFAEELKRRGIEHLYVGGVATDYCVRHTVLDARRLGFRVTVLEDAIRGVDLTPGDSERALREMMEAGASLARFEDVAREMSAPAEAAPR

Row | Molecule | Ki [1] [nM] | Km [2] [µM] | kcat [2] [s⁻¹] | kcat/Km [2] [M⁻¹ s⁻¹] | Km [3] [µM] | kcat [3] [s⁻¹] | kcat/Km [3] [M⁻¹ s⁻¹] | Km [4] [µM] | kcat [4] [s⁻¹] | kcat/Km [4] [M⁻¹ s⁻¹] | Km [5] [µM] | kcat [5] [s⁻¹] | kcat/Km [5] [M⁻¹ s⁻¹]
1 | O=Cc1cccnc1 [nicotinaldehyde] | 180 ± 1 | – | – | – | – | – | – | – | – | – | – | – | –
2 | UbNic (nicotinamidase) (uncultured Acidobacteriota bacterium) | – | 1310 ± 30 | 3.7 ± 0.3 | 2800 | 1080 ± 110 | 54.5 ± 0.8 | 50500 | 1090 ± 200 | 43.7 ± 0.3 | 40100 | 330 ± 50 | 18.7 ± 0.3 | 56700
